The sequences below were run on Escherichia coli TOP10 (assay: shrunken log2 fold change of peptide-encoding DNA abundance (4.5 h post-induction vs induction); higher = less antimicrobial activity (less host growth inhibition)). Settings: time post-induction: 4.5 h; library: site-saturation at positions 5, 18, 19, 20.
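Note: peptides expressed intracellularly from a pBAD plasmid library in pooled LB shake-flask culture, induced with 0.3% L-arabinose, DNA abundance read by NGS, three biological replicates, DESeq2 with apeglm shrinkage.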

Row | Sequence | shrunken log2 fold change
1 | RRIRIRPPRLPRPRPRPGHKPRP | -0.363
2 | RRIRCRPPRLPRPRPRPYAFPRP | -0.425
3 | RRIRPRPPRLPRPRPRPLCFPRP | 0.354
4 | RRIRSRPPRLPRPRPRPNDFPRP | -0.19
5 | RRIRHRPPRLPRPRPRPCEQPRP | -0.0166
6 | RRIRNRPPRLPRPRPRPMIDPRP | -0.0621
7 | RRIRCRPPRLPRPRPRPPCQPRP | 0.0248
8 | RRIRIRPPRLPRPRPRPYVIPRP | -0.017
9 | RRIRCRPPRLPRPRPRPEDVPRP | -0.0129
10 | RRIRGRPPRLPRPRPRPVNTPRP | 0.0713
11 | RRIRRRPPRLPRPRPRPPMWPRP | 0.548
12 | RRIRMRPPRLPRPRPRPVMQPRP | -0.221
13 | RRIRERPPRLPRPRPRPEVNPRP | -0.0365
14 | RRIRRRPPRLPRPRPRPARSPRP | 0.512
15 | RRIRFRPPRLPRPRPRPKGHPRP | 0.0587
16 | RRIRARPPRLPRPRPRPVIPPRP | -0.296
17 | RRIRVRPPRLPRPRPRPSISPRP | -0.357
18 | RRIRIRPPRLPRPRPRPVEYPRP | -0.116
19 | RRIRLRPPRLPRPRPRPNTDPRP | -0.371
20 | RRIRARPPRLPRPRPRPGAFPRP | 0.454

Row | Sequence | shrunken log2 fold change
21 | RRIRWRPPRLPRPRPRPQFYPRP | -0.492
22 | RRIRYRPPRLPRPRPRPSMKPRP | -0.806
23 | RRIRSRPPRLPRPRPRPMNAPRP | 0.0215
24 | RRIRERPPRLPRPRPRPEEHPRP | -0.0183
25 | RRIRIRPPRLPRPRPRPNYCPRP | -0.139
26 | RRIRARPPRLPRPRPRPITMPRP | -0.231
27 | RRIRKRPPRLPRPRPRPSICPRP | 0.242
28 | RRIRTRPPRLPRPRPRPPWVPRP | 0.128
29 | RRIRTRPPRLPRPRPRPADWPRP | 0.446
30 | RRIRWRPPRLPRPRPRPKRSPRP | 0.08
31 | RRIRARPPRLPRPRPRPQATPRP | 0.389
32 | RRIRYRPPRLPRPRPRPHGNPRP | -0.573
33 | RRIRNRPPRLPRPRPRPNHVPRP | -0.117
34 | RRIRRRPPRLPRPRPRPHAGPRP | 0.425
35 | RRIRDRPPRLPRPRPRPRCPPRP | 0.131
36 | RRIRSRPPRLPRPRPRPLWSPRP | -0.0384
37 | RRIRGRPPRLPRPRPRPRIFPRP | 0.804
38 | RRIRMRPPRLPRPRPRPHAWPRP | 0.365
39 | RRIRSRPPRLPRPRPRPCHVPRP | -0.0349
40 | RRIRKRPPRLPRPRPRPCAYPRP | -0.0475

Row | Sequence | shrunken log2 fold change
41 | RRIRVRPPRLPRPRPRPMLFPRP | -0.329
42 | RRIRHRPPRLPRPRPRPFSFPRP | -0.363
43 | RRIRNRPPRLPRPRPRPWMAPRP | -0.28
44 | RRIRWRPPRLPRPRPRPWFHPRP | -0.125
45 | RRIRSRPPRLPRPRPRPGVDPRP | 0.334
46 | RRIRWRPPRLPRPRPRPWCTPRP | 0.118
47 | RRIRMRPPRLPRPRPRPVGHPRP | 0.193
48 | RRIRGRPPRLPRPRPRPKTEPRP | 0.713
49 | RRIRQRPPRLPRPRPRPLHRPRP | -0.11
50 | RRIRTRPPRLPRPRPRPSHPPRP | -0.416
51 | RRIRMRPPRLPRPRPRPIQPPRP | 0.122
52 | RRIRVRPPRLPRPRPRPAKDPRP | 0.00226
53 | RRIRSRPPRLPRPRPRPPGKPRP | -0.0498
54 | RRIRDRPPRLPRPRPRPFAKPRP | -0.0729
55 | RRIRTRPPRLPRPRPRPRMEPRP | -0.0325
56 | RRIRWRPPRLPRPRPRPEIGPRP | 0.0225
57 | RRIRNRPPRLPRPRPRPNVEPRP | -0.0627
58 | RRIRRRPPRLPRPRPRPTHLPRP | 0.578
59 | RRIRERPPRLPRPRPRPSRIPRP | -0.234
60 | RRIRGRPPRLPRPRPRPGTRPRP | 0.703

Source: the supplement of paper PMC9112550, “Optimization of the antimicrobial peptide Bac7 by deep mutational scanning” (BMC Biology, 2022)
